Measurements: publication PMC7263589, “Integration of phage and yeast display platforms: A reliable and cost effective approach for binning of peptides as displayed on-phage” (PLoS ONE, 2020)
Bridge positions count the residues as written; N and C are the ends. Ends that are not written are not given here.

Key:
Details in all cases: both partners purified
[1] = biological target: T1, IL-23 (heterodimer of the p19 and p40 subunits), protein for crystallization (human, UniProt Q9NPF7 20-189; P29460 23-328, Two N-Acetylglucosamine sugars modeled at Asn200); assay: crystal structure; IL-23:peptide mixture, 1:1 molar ratio, ~16 mg/mL; sitting-drop vapor diffusion at 8°C; 100 mM Hepes pH 7, 17% w/v PEG 3350, 150 mM potassium nitrate; 2.7 Å, space group P212121
T1 construct: Interleukin-23 subunit alpha (p19), human; Interleukin-12 subunit beta (p40), human; attempts were made to limit glycosylation; Multiple flexible loops are missing from the model; also called hu IL-23
T1 sequence (looked up) 1: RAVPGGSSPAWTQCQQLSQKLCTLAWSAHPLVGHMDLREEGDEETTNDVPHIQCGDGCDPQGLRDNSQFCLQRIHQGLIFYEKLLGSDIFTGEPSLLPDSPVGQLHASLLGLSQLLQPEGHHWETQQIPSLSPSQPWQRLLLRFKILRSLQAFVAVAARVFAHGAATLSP
T1 sequence (looked up) 2: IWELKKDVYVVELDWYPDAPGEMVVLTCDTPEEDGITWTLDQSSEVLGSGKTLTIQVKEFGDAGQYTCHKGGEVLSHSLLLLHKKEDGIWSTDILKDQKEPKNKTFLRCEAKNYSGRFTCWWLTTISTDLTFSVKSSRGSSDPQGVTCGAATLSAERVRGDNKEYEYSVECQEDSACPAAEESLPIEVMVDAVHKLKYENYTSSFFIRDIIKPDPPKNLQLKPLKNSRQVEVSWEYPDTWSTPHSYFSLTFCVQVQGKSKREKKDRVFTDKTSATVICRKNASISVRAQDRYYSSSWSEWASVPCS

[2] = biological target: T2, IL-23 p40 subunit (as in the crystallized IL-23) (human, UniProt P29460 23-328, Two N-Acetylglucosamine sugars modeled at Asn200); assay: as above
T2 construct: Interleukin-12 subunit beta (p40), human; Chain of Wm1, written on its own for the contacts seen in the structure
T2 sequence (looked up): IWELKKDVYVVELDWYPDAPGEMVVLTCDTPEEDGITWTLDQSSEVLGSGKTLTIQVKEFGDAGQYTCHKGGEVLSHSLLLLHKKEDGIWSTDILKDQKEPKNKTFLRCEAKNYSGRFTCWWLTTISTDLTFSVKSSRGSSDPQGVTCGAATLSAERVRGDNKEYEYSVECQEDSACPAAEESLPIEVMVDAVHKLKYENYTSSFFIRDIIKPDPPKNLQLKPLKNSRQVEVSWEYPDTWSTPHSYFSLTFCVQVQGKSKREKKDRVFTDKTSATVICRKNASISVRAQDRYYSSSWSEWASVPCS

[3] = biological target: T3, IL-23-HIS (human, UniProt Q9NPF7 20-189; P29460 23-328); assay: SPR; competition SPR, 25°C; IL-23R-Fc-AVI (<1000 RU) captured on Protein-A; 20 nM IL-23 mixed with one concentration of peptide or cold IL-23R injected 30 s; 10 mM HEPES pH 7.5, 150 mM NaCl, 0.005% P20, 1% BSA; n = 1
T3 construct: IL-23 p19 subunit, human; IL-12/IL-23 p40 subunit, human; also called IL-23 only; IL-23 protein
T3 sequence (looked up) 1: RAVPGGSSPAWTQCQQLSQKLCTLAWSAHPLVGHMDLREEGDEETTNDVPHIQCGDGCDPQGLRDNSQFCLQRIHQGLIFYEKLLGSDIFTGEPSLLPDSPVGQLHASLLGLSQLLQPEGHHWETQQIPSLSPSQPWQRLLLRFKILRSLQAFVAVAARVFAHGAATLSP
T3 sequence (looked up) 2: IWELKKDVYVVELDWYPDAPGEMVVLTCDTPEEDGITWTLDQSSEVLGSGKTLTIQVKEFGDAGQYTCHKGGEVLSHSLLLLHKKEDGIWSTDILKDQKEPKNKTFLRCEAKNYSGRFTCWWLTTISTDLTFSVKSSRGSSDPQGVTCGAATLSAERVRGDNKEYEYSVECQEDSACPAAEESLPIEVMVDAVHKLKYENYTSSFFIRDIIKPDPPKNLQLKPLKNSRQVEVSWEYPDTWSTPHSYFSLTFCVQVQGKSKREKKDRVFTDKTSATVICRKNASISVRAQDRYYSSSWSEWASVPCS

B1: peptide 23-652 (peptide)
peptide: DTLTKSFCYFGTWCQMYGST
modifications: disulfide 8-14
notes: selected from a cyclic peptide phage library against IL-23; residues 4-18 are ordered in the structure; also called FGT/FGL-motif containing peptide; source: synthetic peptide (CPC Scientific)
[1]
  binding result: binds

B2: IL-23 p19 subunit (as in the crystallized IL-23) (natural protein, human, UniProt Q9NPF7 20-189, looked up)
chain: RAVPGGSSPAWTQCQQLSQKLCTLAWSAHPLVGHMDLREEGDEETTNDVPHIQCGDGCDPQGLRDNSQFCLQRIHQGLIFYEKLLGSDIFTGEPSLLPDSPVGQLHASLLGLSQLLQPEGHHWETQQIPSLSPSQPWQRLLLRFKILRSLQAFVAVAARVFAHGAATLSP
notes: Interleukin-23 subunit alpha (p19), human; Chain of Wm1, written on its own for the contacts seen in the structure
[2]
  binding result: binds

B3: IL-23R-Fc-AVI (Fc fusion, UniProt Q5VWK5 24-355, looked up)
chain: GITNINCSGHIWVEPATIFKMGMNISIYCQAAIKNCQPRKLHFYKNGIKERFQITRINKTTARLWYKNFLEPHASMYCTAECPKHFQETLICGKDISSGYPPDIPDEVTCVIYEYSGNMTCTWNAGKLTYIDTKYVVHVKSLETEEEQQYLTSSYINISTDSLQGGKKYLVWVQAANALGMEESKQLQIHLDDIVIPSAAVISRAETINATVPKTIIYWDSQTTIEKVSCEMRYKATTNQTWNVKEFDTNFTYVQQSEFYLEPNIKYVFQVRCQETGKRYWQPWSSLFFHKTPETVPQVTSKAFQHDTWNSGLTVASISTGHLTSDNRGDIG
notes: IL-23 receptor (IL-23R); also called IL-23R sensor
[3]
  binding result: binds
